Laboratory results: PMC8787476

Target: PERV TM_(493–587) (tag intact) (porcine endogenous retrovirus A (PERV-A))
Test: SEC; Superdex 75 10/300 GL in 10 mM Tris-HCl, pH 7.5, 150 mM NaCl; calibrated with protein standards (Kav curve); apparent MW ~43 kDa against theoretical trimeric MW 39.9 kDa

**Q.** For “PERV TM_(493–587) (tag intact) (domain or fragment)”, which stoichiometry N is on record?
**A.** 3
